The assay concerns the target rd23b_human RAD23B (UniProt P54727).

rd23b_human RAD23B, sequence (P54727 whole entry): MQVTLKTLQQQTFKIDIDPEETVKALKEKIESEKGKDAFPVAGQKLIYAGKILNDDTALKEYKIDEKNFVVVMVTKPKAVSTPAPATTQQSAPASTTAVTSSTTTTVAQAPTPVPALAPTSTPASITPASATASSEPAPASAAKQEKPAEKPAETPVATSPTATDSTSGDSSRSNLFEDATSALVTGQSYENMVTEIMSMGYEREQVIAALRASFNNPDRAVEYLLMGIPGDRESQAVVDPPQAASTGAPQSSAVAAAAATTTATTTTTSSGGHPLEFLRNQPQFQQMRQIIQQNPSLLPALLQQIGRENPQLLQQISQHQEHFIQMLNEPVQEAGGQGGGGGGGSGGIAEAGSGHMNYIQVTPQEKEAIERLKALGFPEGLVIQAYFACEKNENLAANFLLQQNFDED
Paired box protein Pax-3 (Mus musculus), P24610 K437R, sequence (P24610 whole entry K437R): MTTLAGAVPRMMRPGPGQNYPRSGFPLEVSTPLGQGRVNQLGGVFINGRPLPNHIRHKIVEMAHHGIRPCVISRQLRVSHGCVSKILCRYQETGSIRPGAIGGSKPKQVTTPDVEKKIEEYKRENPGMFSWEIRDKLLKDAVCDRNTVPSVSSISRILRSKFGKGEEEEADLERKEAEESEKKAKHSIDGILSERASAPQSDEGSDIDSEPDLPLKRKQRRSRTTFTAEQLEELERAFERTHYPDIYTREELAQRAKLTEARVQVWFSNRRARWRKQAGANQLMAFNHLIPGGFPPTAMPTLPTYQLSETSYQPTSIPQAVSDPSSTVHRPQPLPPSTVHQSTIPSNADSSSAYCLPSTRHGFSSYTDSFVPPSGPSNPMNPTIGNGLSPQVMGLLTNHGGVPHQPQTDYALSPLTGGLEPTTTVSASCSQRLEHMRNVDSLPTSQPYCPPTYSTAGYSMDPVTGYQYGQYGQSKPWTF
Paired box protein Pax-3 (Mus musculus), P24610 K475R, sequence (P24610 whole entry K475R): as the sequence (P24610 whole entry K437R) above, with R437K, K475R counted along it

Consider “Paired box protein Pax-3 (Mus musculus), P24610 K437R”, for which the “effect of a mutation on the interaction” value is on record as “decreasing interaction”.
With “Paired box protein Pax-3 (Mus musculus), P24610 K475R” the entry was “decreasing interaction”.

Values taken from IntAct's records for PubMed 17662948.
